Experimental findings from IntAct's records for PubMed 29892012 are described below.

The chains are these.
B1: Atos homolog protein B (Homo sapiens), Q7L5A3 (parent)
chain: MRHVQAEPSPSSEPEAGPSQPPVRQGALQGGLLMGYSPAGGATSPGVYQVSIFSPPAGTSEPHRALKRQAPSTEGPRELKRGPGLGAREGLPPEEPSTVGLLGPEGPGLGLGVASQHFSHRGLCVVEQRSSVTSSWTSGAWSPPCPPSNASCNTLHTRDWASPDPGGQGSLGESPGPAPPGQLHTLDTDLHSLAQIGGKSPVAGVGNGGSLWPRESPGTANGHSPEHTPPGPGPPGPCPTKRRLLPAGEAPDVSSEEEGPAPRRRRGSLGHPTAANSSDAKATPFWSHLLPGPKEPVLDPTDCGPMGRRLKGARRLKLSPLRSLRKGPGLLSPPSASPVPTPAVSRTLLGNFEESLLRGRFAPSGHIEGFTAEIGASGSYCPQHVTLPVTVTFFDVSEQNAPAPFLGIVDLNPLGRKGYSVPKVGTVQVTLFNPNQTVVKMFLVTFDFSDMPAAHMTFLRHRLFLVPVGEEGNANPTHRLLCYLLHLRFRSSRSGRLSLHGDIRLLFSRRSLELDTGLPYELQAVTEAPHNPRYSPLP
B2: Signal transducing adapter molecule 1 (Homo sapiens), Q92783 (parent)
chain: MPLFATNPFDQDVEKATSEMNTAEDWGLILDICDKVGQSRTGPKDCLRSIMRRVNHKDPHVAMQALTLLGACVSNCGKIFHLEVCSRDFASEVSNVLNKGHPKVCEKLKALMVEWTDEFKNDPQLSLISAMIKNLKEQGVTFPAIGSQAAEQAKASPALVAKDPGTVANKKEEEDLAKAIELSLKEQRQQSTTLSTLYPSTSSLLTNHQHEGRKVRAIYDFEAAEDNELTFKAGEIITVLDDSDPNWWKGETHQGIGLFPSNFVTADLTAEPEMIKTEKKTVQFSDDVQVETIEPEPEPAFIDEDKMDQLLQMLQSTDPSDDQPDLPELLHLEAMCHQMGPLIDEKLEDIDRKHSELSELNVKVMEALSLYTKLMNEDPMYSMYAKLQNQPYYMQSSGVSGSQVYAGPPPSGAYLVAGNAQMSHLQSYSLPPEQLSSLSQAVVPPSANPALPSQQTQAAYPNTMVSSVQGNTYPSQAPVYSPPPAATAAAATADVTLYQNAGPNMPQVPNYNLTSSTLPQPGGSQQPPQPQQPYSQKALL
B3: Ras suppressor protein 1 (Homo sapiens), Q15404 (parent)
chain: MSKSLKKLVEESREKNQPEVDMSDRGISNMLDVNGLFTLSHITQLVLSHNKLTMVPPNIAELKNLEVLNFFNNQIEELPTQISSLQKLKHLNLGMNRLNTLPRGFGSLPALEVLDLTYNNLSENSLPGNFFYLTTLRALYLSDNDFEILPPDIGKLTKLQILSLRDNDLISLPKEIGELTQLKELHIQGNRLTVLPPELGNLDLTGQKQVFKAENNPWVTPIADQFQLGVSHVFEYIRSETYKYLYGRHMQANPEPPKKNNDKSKKISRKPLAAKNR
B4: Protein arginine N-methyltransferase 8 (Homo sapiens), Q9NR22 (parent)
chain: MGMKHSSRCLLLRRKMAENAAESTEVNSPPSQPPQPVVPAKPVQCVHHVSTQPSCPGRGKMSKLLNPEEMTSRDYYFDSYAHFGIHEEMLKDEVRTLTYRNSMYHNKHVFKDKVVLDVGSGTGILSMFAAKAGAKKVFGIECSSISDYSEKIIKANHLDNIITIFKGKVEEVELPVEKVDIIISEWMGYCLFYESMLNTVIFARDKWLKPGGLMFPDRAALYVVAIEDRQYKDFKIHWWENVYGFDMTCIRDVAMKEPLVDIVDPKQVVTNACLIKEVDIYTVKTEELSFTSAFCLQIQRNDYVHALVTYFNIEFTKCHKKMGFSTAPDAPYTHWKQTVFYLEDYLTVRRGEEIYGTISMKPNAKNVRDLDFTVDLDFKGQLCETSVSNDYKMR
partner: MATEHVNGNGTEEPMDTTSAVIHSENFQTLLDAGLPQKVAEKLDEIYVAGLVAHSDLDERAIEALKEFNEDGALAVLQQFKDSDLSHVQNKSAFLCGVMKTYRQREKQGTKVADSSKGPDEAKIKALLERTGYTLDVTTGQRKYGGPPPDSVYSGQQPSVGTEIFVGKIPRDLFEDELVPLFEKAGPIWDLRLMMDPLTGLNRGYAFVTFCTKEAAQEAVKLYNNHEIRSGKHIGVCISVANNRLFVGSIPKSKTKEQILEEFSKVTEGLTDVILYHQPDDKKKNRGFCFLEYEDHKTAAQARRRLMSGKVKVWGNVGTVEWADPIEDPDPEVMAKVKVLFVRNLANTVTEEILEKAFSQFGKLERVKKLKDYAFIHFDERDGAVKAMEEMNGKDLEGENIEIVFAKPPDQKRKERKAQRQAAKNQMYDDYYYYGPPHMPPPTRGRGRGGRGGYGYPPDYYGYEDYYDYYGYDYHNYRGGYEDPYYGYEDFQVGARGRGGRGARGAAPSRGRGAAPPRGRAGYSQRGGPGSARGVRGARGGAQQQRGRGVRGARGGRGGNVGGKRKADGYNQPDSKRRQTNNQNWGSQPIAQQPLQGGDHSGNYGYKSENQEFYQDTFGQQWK

One assay covers variants of B1. The note with it: with mdfi_human MDFI.
As to C381Y, the “effect of a mutation on the interaction” value is listed as “with no effect”.

A further assay covers variants of B1. The settings on record: with ikzf1_human IKZF1, Q13422.
Chain of ikzf1_human IKZF1, Q13422 (Q13422 whole entry): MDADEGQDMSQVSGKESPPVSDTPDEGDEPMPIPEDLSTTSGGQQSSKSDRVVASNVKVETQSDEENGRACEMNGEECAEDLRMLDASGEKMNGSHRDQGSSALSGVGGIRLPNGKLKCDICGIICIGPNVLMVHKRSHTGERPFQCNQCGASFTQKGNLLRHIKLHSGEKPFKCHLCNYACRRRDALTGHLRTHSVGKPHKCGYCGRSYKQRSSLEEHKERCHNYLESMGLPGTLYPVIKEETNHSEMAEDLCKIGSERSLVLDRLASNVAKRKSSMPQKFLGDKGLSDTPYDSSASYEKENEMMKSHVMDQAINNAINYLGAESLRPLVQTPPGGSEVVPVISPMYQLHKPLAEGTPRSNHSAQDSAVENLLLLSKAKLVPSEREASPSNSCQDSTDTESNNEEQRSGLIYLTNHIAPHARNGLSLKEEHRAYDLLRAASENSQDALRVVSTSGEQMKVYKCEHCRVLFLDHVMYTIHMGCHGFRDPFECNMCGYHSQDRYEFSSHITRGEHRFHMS
With C381Y, the “effect of a mutation on the interaction” value is “disrupting interaction strength”.

Variants of B1 are the subject of a further assay. The note with it: with dnja3_human DNAJA3, Q96EY1.
Chain of dnja3_human DNAJA3, Q96EY1 (Q96EY1 whole entry): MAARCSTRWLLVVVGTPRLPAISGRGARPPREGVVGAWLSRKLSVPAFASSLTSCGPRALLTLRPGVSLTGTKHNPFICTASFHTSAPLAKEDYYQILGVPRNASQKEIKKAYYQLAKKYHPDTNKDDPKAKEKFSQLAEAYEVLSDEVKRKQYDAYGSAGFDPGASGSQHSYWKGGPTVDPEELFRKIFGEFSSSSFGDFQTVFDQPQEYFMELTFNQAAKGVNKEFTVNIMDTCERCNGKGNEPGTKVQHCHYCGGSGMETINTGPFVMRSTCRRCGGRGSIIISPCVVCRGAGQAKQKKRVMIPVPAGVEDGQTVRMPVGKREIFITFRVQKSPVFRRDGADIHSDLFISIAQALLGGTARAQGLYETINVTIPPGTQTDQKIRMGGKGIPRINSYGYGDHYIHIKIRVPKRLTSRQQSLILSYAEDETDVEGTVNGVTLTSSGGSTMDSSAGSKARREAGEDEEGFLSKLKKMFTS
On to C381Y, for which the “effect of a mutation on the interaction” value is listed as “disrupting interaction strength”.

In a further assay the parent is B2. The settings on record: with hgs_human HGS.
For H331L, the “effect of a mutation on the interaction” value was “with no effect”.

The variants in another assay derive from B3. The settings on record: with lims1_human LIMS1, P48059.
Chain of lims1_human LIMS1, P48059 (P48059 whole entry): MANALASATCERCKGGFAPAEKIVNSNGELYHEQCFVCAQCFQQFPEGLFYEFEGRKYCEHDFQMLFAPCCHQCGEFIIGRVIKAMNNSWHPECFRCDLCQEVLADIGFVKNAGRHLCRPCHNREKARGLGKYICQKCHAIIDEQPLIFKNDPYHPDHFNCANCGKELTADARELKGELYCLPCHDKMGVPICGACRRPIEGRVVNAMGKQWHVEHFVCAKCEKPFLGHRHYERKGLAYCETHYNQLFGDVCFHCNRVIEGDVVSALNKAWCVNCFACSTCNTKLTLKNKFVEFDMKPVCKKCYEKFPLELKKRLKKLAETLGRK
Regarding P57L, the “effect of a mutation on the interaction” value is “disrupting interaction strength”.

The variants in another assay derive from B4. The note with it: with hnrpq_human SYNCRIP.
Turning to R350S, the “effect of a mutation on the interaction” value was “with no effect”.
